Test results taken from US20050037961A1 (BAYLOR COLLEGE OF MEDICINE, published 2005).
Each block holds one binder with its values, some of them ahead of it.

B3: FLAG-tagged rat CRP2 (αMHC-CRP2 transgene) (other, UniProt Q62908 1-193, looked up, not shown: small tags and cut ends)
chain: MPVWGGGNKCGACGRTVYHAEEVQCDGRTFHRCCFLCMVCRKNLDSTTVAIHDEEIYCKSCYGKKYGPKGYGYGQGAGTLNMDRGERLGIKPESAQPHRPTTNPNTSKFAQKYGGAEKCSRCGDSVYAAEKIIGAGKPWHKNCFRCAKCGKSLESTTLTEKEGEIYCKGCYAKNFGPKGFGYGQGAGALVHAQ
notes: Expressed in cardiomyocytes of transgenic mice and assayed in nuclear and cytoplasmic heart extracts; also called FLAG-CRP2; FLAG-tagged CRP2

What was measured:
[1] = biological target: T1, endogenous SRF (αMHC-CRP2 mouse heart nuclear extract) (mouse, UniProt Q9JM73 1-504); assay: co-IP from nuclear extracts of αMHC-CRP2 transgenic mouse hearts
T1 sequence (looked up): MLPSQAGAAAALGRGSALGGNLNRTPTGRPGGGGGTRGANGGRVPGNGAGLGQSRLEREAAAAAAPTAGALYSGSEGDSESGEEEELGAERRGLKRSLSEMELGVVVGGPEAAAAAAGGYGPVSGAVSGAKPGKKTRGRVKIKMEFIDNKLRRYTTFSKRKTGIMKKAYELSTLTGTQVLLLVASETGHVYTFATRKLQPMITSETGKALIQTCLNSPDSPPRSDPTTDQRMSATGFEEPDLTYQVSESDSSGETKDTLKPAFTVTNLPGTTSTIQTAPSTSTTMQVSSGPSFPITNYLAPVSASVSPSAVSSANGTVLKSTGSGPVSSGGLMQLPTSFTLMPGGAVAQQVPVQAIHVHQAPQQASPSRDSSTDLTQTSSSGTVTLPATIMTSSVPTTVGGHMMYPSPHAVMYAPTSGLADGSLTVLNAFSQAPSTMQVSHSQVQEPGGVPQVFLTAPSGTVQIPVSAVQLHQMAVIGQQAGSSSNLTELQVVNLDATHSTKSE

[2] = biological target: endogenous GATA6 (αMHC-CRP2 mouse heart nuclear extract) (mouse, UniProt Q61169 1-589, limits assumed); assay: as above
[3] = biological target: B3; assay: as above
GST-SRF = biological target: T2, GST-SRF (human, UniProt P11831 1-508); assay: GST-SRF pull-down of 35S-labelled in vitro translated protein
T2 construct: also called GST-SRF fusion protein; not shown: glutathione S-transferase encoded by vector pGEX-2T
T2 sequence (looked up): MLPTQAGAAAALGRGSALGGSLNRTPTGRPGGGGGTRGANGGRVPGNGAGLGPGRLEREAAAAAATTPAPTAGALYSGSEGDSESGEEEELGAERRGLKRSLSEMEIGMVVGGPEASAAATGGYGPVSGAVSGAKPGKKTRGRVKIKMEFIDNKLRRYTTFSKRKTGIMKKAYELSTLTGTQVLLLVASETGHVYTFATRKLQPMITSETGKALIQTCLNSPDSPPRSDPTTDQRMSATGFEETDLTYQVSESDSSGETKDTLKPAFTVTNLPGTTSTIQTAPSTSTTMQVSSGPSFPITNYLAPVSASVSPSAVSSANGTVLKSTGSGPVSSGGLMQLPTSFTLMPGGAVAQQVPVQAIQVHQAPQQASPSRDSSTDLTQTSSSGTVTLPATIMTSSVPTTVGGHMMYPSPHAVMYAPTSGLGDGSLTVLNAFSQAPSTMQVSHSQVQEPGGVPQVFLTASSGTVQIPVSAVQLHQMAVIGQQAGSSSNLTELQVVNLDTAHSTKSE

[4] = biological target: T1, endogenous SRF (αMHC-CRP2 mouse heart …); assay: co-IP from nuclear extracts of αMHC-CRP2 transgenic mouse hearts, immunoblot

endogenous GATA6 (αMHC-CRP2 mouse heart nuclear extract), sequence (Q61169 whole entry): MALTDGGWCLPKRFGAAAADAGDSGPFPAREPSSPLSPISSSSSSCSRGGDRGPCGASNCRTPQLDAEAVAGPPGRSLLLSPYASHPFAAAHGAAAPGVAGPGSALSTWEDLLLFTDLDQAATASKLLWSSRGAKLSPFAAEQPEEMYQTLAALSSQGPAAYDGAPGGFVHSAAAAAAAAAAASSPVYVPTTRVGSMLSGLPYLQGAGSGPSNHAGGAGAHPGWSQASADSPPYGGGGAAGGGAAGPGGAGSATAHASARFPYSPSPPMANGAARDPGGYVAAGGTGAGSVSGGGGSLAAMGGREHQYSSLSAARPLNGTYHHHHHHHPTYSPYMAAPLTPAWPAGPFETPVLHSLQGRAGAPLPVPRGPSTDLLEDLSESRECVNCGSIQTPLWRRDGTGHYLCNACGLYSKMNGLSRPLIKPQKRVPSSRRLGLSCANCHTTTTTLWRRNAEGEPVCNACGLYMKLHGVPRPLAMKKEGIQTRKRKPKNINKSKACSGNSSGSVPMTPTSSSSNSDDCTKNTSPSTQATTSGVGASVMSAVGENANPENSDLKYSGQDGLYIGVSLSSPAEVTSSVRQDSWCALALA

- binding result [1]: no binding
- binding result [2]: no binding
- binding result [3]: no binding
B1: Id1, endogenous cardiac bHLH transcription factor (other, mouse, UniProt P20067 1-168, looked up)
chain: MKVASGSAAAAAGPSCSLKAGRTAGEVVLGLSEQSVAISRCAGTRLPALLDEQQVNVLLYDMNGCYSRLKELVPTLPQNRKVSKVEILQHVIDYIRDLQLELNSESEVGTTGGRGLPVRAPLSTLNGEISALAAEVRSESEYYIILQWETEATGGGCPPSLLFRRIAI

- binding result (GST-SRF): no binding
B2: CRP2ZF2+ZF3 (aa 35-145) (other, rat, UniProt Q62908 35-145, looked up, not shown: small tags and cut ends)
chain: FLCMVCRKNLDSTTVAIHDEEIYCKSCYGKKYGPKGYGYGQGAGTLNMDRGERLGIKPESAQPHRPTTNPNTSKFAQKYGGAEKCSRCGDSVYAAEKIIGAGKPWHKNCFR
notes: range 35-145; also called C2ZF2+ZF3

Binder: B3
- binding result [4]: binds
